{"source": "patent US6060588", "about": "“Bap-1 proteins” (COR Therapeutics, Inc., dated 2000)", "binders": {"B1": {"name": "clone 126-2 (partial cDNA of the mouse homologue of Bap-1, fused to the VP16 activation domain) (other)", "chain": "SGAEDNGDSSHCSNASTHSNQEAGPSNKRTKTSDDSGLDLDNNNAGVAIDPVMDGASEIELVFRPHPTLMEKDDSAQTRYIKTSGNATVDHLSKYLAVRLALEELRSKV"}}, "biological_target": "GAL4 DNA binding protein only (pGBT9) (Saccharomyces cerevisiae (strain ATCC …, UniProt P04386))", "assay": "yeast two-hybrid, mating with control baits", "data": [{"binder": "B1", "values": [{"measurement": "binding result", "result": "no binding"}]}]}
